B1: KCD132 (antibody, V domains shown)
VH: QVQLQQSGPELVKPGASVKISCKASGYSFTDYYINWVKQRPGQGLEWIGWIFPGSGSTYYNEKFKGKATLTVDKSSSTAYMLLSSLTSEDSAVYFCARTGYYSNLYAVDYWGQGTSVTVSS
VL: DIQMTQSPASLSVSVGETVTITCRASENIYSNLAWYQQKQGKSPQLLVYVATNLADGVPSRFSGSGSGTQYSLKINSLQSEDFGNYYCQHFWGTPYTFGGGTKLEMR
B2: KCD220 (antibody, V domains shown)
VH: QVQLQQSGAELMEPGASVKLSCKATGYTFTGYWIEWVKQRPGHGLEWIGETLPGSDSNNYNEKFKGKATFTADTSSNTAYMQLSSLTTEDSAIYYCARDYSNYWYFDVWGTGTTVTVSS
VL: DIQMTQTTSSLSASLGDRVTISCRASQDISNYLNWYQQKPDGTVKLLIYYTSNLHSGVPSRFSGSGSGTDYSLTISNLEQEDIATYFCQQDSKHRTFGGGTKLEIK
B3: KCD019 (antibody, V domains shown)
VH: QVQLQQSGAELARPGASVKMSCKASGYTFATYTIHWVKQRPGQGLEWIGYLNLRNDYTHYNQKFRDKAALTADKSSSTAYMQLSSLTSEDSAVYNCAFRLGNDRQGWYFDVWGAGTTVTVSS
VL: DIVMTQAHRFMSTSVGDRVIISCKASQDVGTAVAWYQQTPGQSPKILIYWTSTRHTGVPDRFTGSRSGTDFTLTISNVQSEDLADYFCQQYTTYPLTFGGGTKLEIK
B4: KCD030 (antibody, V domains shown)
VH: QVQLQQSGAELAKPGASVKMSCKASGYTFTNYWMHWVKQRPGQGLEWIGYINPSIGYTEYNQKFKDKATLTADKSSSTAYMQLSSLTSEDSAVFYCATFIYYAMDYWGQGTSVTVSS
VL: DIQMNQSPSSLSASLGDTITITCHASQNINVWLSWYQQKPGNIPKLLIYKASNLHTGVPSRFSGSGSGTGFTLTISSLQPEDIATYYCQQGQSYPYTFGGGTKLEIK
B5: KCD004 (antibody, V domains shown)
VH: EVQLQQSGAELVRPGSSVKMSCKTSGKTFTSHGINWVKQRPGQGLEWIGYIYIGNGYNEYNEKFKGKATLTSDTSSSTAYMQLSSLTFEDSAIYFCVRKAYGNYGFDDWGQGTTLTVSS
VL: DIQMTQSPTSLSASLGESVSLTCRASQEISGYLNWLQQKPDGSIKRLIYAASTLDSGVPKRFSGSRSGSDYSLTISSLESEDFADYYCLQYANYPFTFGSGTKLEVK
notes: also called OG2063
B6: KCD125 (antibody, V domains shown)
VH: B5 VH with K27N, H32Y, N55T, N58T, F88S, D108Y
VL: B5 VL with T9S, S18R, N34S, S43T, N93S, V106I
B7: KCD038 (antibody, V domains shown)
VH: EVQLQQSGPELVKPGTSMKISCKASGYSFADYTMNWVKQSHGKSLEWIGLINPYNGGTSYNQKFMGKATLTVDKSSSTAYMELLSLTSEDSAVYYCARWGTYSHNYDYAMDYWGQGTSVTVSS
VL: DVVMTQTPLSLPVSLGDQASISCRSSQSLVHSNGNTYLYWYFQKPGQSPKFLIYKVSNRFSGISDRFSGSGSGTDFTLKISRVEAEDLGVYFCSQSTHVPPFTFGSGTKLEIK
B8: KCD039 (antibody, V domains shown)
VH: B7 VH with L11M, T16A, M34L, A97T
VL: B7 VL with P12S, F42L, F51L, S64T
B9: KCD018 (antibody, V domains shown)
VH: QVQLQQSAAELARPGASVKMSCKASGYTFTSYTVHWVKQRPGQGLEWIGYINPSSGFTDYNQKFKDKTTLTADISSSTAYIQLSSLTSEDSAVYYCARRGVNWSWFAYWGQGTLVTVSA
VL: NIMMTQSPSSLAVSAGEKVTMSCKSSQSVLYSSNQKNYLAWYQQKPGQSPQLLIYWASTRESGVPERFTGSGSGTDFTLTISSVQAEDLAVYYCHQYLSSWTFGGGTKLEIK
B10: KCD137 (antibody, V domains shown)
VH: EVQLVESGGDLVKPGGSLKLSCAASGFTFSGYGMSWVRQIPDKRLEWVAISSRDNSFTYYPDSVKGRFTISRDNAKNTLYLQMSSLKSEDTALYFCTRHPYLPTGGYVMDYWGQGTSVTVSS
VL: DIVMTQSHKFMSTSVGDRVSITCKASQDVGTAVAWYQQRPGQSPKLLIYWASTRHTGVPDRFTGSGSGTDFTLTVSNVQSEDLADYFCQQYTSYPLTFGAGTKLELK
B11: KCD070 (antibody, V domains shown)
VH: EIQLQQTGPELVKPGASVKISCKASGYSFTDYIILWVKQSHGKSLEWIGNINPYYDYTSYNLKFKGKATLTVDKSSSTAYMQLNSLTSEDSAVYYCARSDGYYGGDYWGQGTSVTVSS
VL: B10 VL with R39K, V75I, S76N, T92S, L96W, A100G, K103T, L106I
B12: KCD017 (antibody, V domains shown)
VH: DVQLQESGPDLVKPSQSLSLTCTVTDYSITSGYSWHWIRQFPGNKLEWLGYIHSSGNTNYNPSLKSRFSITRDTSKNQFFLQLNSVTSEDTATYYCALHYYGSSFGWYFDVWGAGTTVTVSS
VL: B10 VL with S20Y, R39T, P40S, V75L
B13: KCD214 (antibody, V domains shown)
VH: EVQLQQSVAEFVRPGASVKLSCTASGFNIKNTYMHWVKQRPEQGLEWIGRIDPANGNTEYAPKFQGKATITADTSSNTAYLQLSSLTSEDTAIYYCALYDYDGYWGQGTTLTVSS
VL: EIVLTQSPALMAASPGEKVTITCRVSSSISSSSLHWYQQKSGTSPKPWIYGTSNLASGVPVRFSGSRSGTSYSLTISSMEAEDAATYYCQQWSDYPWTFGGGTKLEIK
B14: KCD208 (antibody, V domains shown)
VH: B13 VH with F11L, A24V, N57D, E59T, T78S, Q82H, S85R, A97S
VL: B13 VL with R24S, Q38R, N54H, R67G, S93D, D94T
B15: KCD050 (antibody, V domains shown)
VH: QVQLKESGPGLVAPSQSLSITCTVSGFSLNSYGVQWVRQPPGQGLEWLVVIWRDGTITYNSALKSRLSINKDNSKSQVFLKMNSLQTDDTAMYYCGRTSHYGNFNYYVMDYWGQGTAVTVSS
VL: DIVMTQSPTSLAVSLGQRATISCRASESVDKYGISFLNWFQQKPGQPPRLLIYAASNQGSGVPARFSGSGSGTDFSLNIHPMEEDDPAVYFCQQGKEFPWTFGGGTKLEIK
B16: KCD052 (antibody, V domains shown)
VH: B15 VH with V49G, T56S, N70R, F104Y
VL: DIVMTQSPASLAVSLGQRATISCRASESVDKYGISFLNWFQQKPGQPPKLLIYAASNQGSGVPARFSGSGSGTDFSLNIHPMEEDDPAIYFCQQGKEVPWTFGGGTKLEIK
B17: KCD065 (antibody, V domains shown)
VH: QVQLQQSGAELARPGASVKMSCKASGYTFTTYTIHWVKQRPGQGLEWIGYINPSSDFTNYNQNFADKATLTADRSSSTAYMQLSSLTSEESAVYYCAIRLGYDRQGWYFDVWGAGTTVTVSS
VL: DIVMTQSHKFLSTSLGDRVSITCKASQDVGSAVAWYQQKPGQSPDLLIYWTFTRHTGVPDRFTGSRSGTDFTLTISNVQSGDLADYFCQQYSNYPLTFGGGTKLEIK
B18: KCD133 (antibody, V domains shown)
VH: EVQLVESGGGLLQPKGSLKLSCAASGFTFNTYAMNWVRQAPGKGLEWVARIRSKSSNYATYYADSVKDRFTISRDDSQSMFYLEMNNLKTEDTAMYYCVRDRGYYYVMDYWGQGTSVTVSS
VL: DIVLTQSPASLAVSLGQRATISCRASESVEYYGTSLMQWYQQKPGQPPKLLINAASNVESGVPARFSGSGSGTDFSLNIHPVEEDDIAMYFCQQSRKVPWTFGGGTKLEIK
B19: KCD002 (antibody, V domains shown)
VH: EVKLVESEGGLVQPGSSMKLSCTASGFTFSDYYMAWVRQVPEKGLEWVGNINYDGSSTYYLDSLKSRFIISRDSAKNILYLQMSSLKSEDTATYFCARGEDFYLYAMDYWGQGTSVTVSS
VL: DIQMTQSPASLSASVGETVTITCRASENIHSYLAWYQQKQGKSPQLIVYNTKTLAEGVPSRFSGSGSGTQFSLKINSLQPEDFGSYYCQHHYGIPPTFGGGTKLEIK
B20: KCD230 (antibody, V domains shown)
VH: QVQLQQPGTELVKPGASVKLPCKASGYTFTSYWMQWVKQRPGQGLEWIGEIDPSDTYINYNQKFKGKATLTVDTSSTTAYMQLSSLTSEDSAVYYCARYTTIMASDYWGQGTTLTVSS
VL: DIQMTQTTSSLSVSLGDRVTISCRASQDITNYLNWYQQKPDGTVKLLIYFTSRLHSGVPSRFSGSGSGTDYSLTISNLEPEDIATYYCQQYSKLPWTFGGGTKLEIK
B21: KCD114 (antibody, V domains shown)
VH: EVQLQQSGPELVKPGASVKISCKASGYSFTAYYMNWVKQSPEKSLEWIGDINPSTGGTTYNQNFKAKATLTVDKSSSTAYMHLKSLTSEDSAVYYCATTYYSGNSYVGFAYWGQGTLVTVSA
VL: DIVMTQSHKFMSTSVGDRVSITCKASQDVSTAVAWYQQKPGQSPKLLIFWASTRHTGVPDRFTGSGSGTDYTLTISSVQAEDLALYYCQQHYSTPWTFGGGTKLEIK
B22: KCD008 (antibody, V domains shown)
VH: EVQLQQSGPELVKAGASVKMSCTASGFNIKDTYMHWVKQRPEQGLAWIGRIDPANGNIKYDPKFQGKATITADTSSNTAYLQLSSLTSDDTAVYYCTSAMDYWGQGTSVTVSS
VL: QIVLTQSPEIMSASPGEKVTMTCSARSSVSYMYWYQQKPGSSPRLLIYDTSNLASGVPVRFSGSGSGTSYSLTISRMETEDAATYYCQQWSTYPFTFGSGTKLEIK
B23: KCD040 (antibody, V domains shown)
VH: EVQLQQSGAELVKPGASVKLSCTASDFNIKDTYMHWVMQRPEQGLEWIGKIDPANGNTEFDPKFQGKATITADTSSNTAYLQLTSLTSEDTAVYYCTRAMDYWGQGTSVTVSS
VL: B22 VL with E9A, R26G, L45V, T79A, T92N, F95Y, S99G
B24: KCD013 (antibody, V domains shown)
VH: EVQLQQSGAELVKPGASVKLSCTASGFKIKDTYMHWVKERPDQGLEWIGRIDPANGNTKYDPKFQGKATITADTSSNTAYLQLSSLTSEDTAVYYCANAMDYWGQGTSVTVSS
VL: B22 VL with V3I, E9A, R26S, Y31N, T68A, T79A, T92S, F95W, S99G

Changes are numbered by the printed parent chain.

One may read the Kd as the equilibrium constant for the complex coming apart. Read a high Kd as weaker binding.

The test deals with T1, human Complement Factor D (CFD), purified from human serum (human, UniProt P00746 26-253).
T1 construct: serum purified (CompTech A136); also called serum purified CFD; hCFD-Comptech
T1 sequence (P00746 26-253): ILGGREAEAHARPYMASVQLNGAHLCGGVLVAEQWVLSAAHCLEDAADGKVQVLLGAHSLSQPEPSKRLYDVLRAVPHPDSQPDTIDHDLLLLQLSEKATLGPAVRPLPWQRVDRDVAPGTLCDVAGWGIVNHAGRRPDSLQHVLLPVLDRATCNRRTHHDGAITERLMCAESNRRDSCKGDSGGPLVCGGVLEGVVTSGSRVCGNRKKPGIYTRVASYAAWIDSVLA
The test can be described thus: SPR MX96, mAbs amine-coupled, CFD injected.
On to B1, for which the affinity, expressed as Kd, was 2.61 nM.

On to B2, for which the Kd worked out at 0.0535 nM.

On to B3, for which binding was put at a Kd of 7.24 nM.

Turning to B4, binding was characterised by a dissociation constant (Kd) of 4.17 nM.

With B5, binding was put at a Kd of 0.353 nM.

B6 came in with a dissociation constant (Kd) of 3.75 nM.

Molecule B7 had a Kd of 37.2 nM.

As for B8, the Kd stood at 52.5 nM.

B9: the Kd is 40.8 nM.

Molecule B10 yielded an equilibrium dissociation constant (Kd) of 0.504 nM.

B11: binding was put at a Kd of 3.83 nM.

Regarding B12, the Kd is 7.85 nM.

B13 came in with a Kd of 1.56 nM.

Turning to B14, the Kd came out at 2.55 nM.

Molecule B15 yielded a Kd of 1.96 nM.

The molecule B16 returned an equilibrium dissociation constant (Kd) of 3.07 nM.

With B17, binding was characterised by a dissociation constant (Kd) of 3.28 nM.

For B18, the equilibrium dissociation constant (Kd) is 11.5 nM.

B19 registered a Kd of 0.132 nM.

B20 registered a dissociation constant (Kd) of 2.48 nM.

Turning to B21, the Kd worked out at 8.06 nM.

Turning to B22, the affinity, expressed as Kd, was 4.38 nM.

B23: the Kd is 1.93 nM.

In turn, B24 returned a Kd of 7.32 nM.

For the origin of these results see patent US20180334496A1 (KODIAK SCIENCES, published 2018).
